This is an account of results in paper PMC9104182.

The assay concerns the target photoconvertible fluorescent protein DendFP (Dendronephthya sp). Kind of assay: crystal structure; native DendFP crystals, hanging drop at 22 °C, 100 mM Tris-HCl pH 7.5, 0.2 M MgCl2, 20% PEG4000; eight molecules (two tetramers) in the asymmetric unit; interfaces analysed with PISA.

Broadly, the stoichiometry N is the number of molecules, sites or subunits per partner or assembly. “photoconvertible fluorescent protein DendFP (natural protein)” came in with a stoichiometry N of 4.
